Test results taken from article PMC6658013.

Experiments:
[1] = target: prefusion-stabilized RSV F (DS-Cav1), subtype A (strain A2), with C-terminal His tag and Strep-tag I (human respiratory syncytial virus subtype A (strain A2)) (UniProt P03420); experiment: SPR
[2] = target: subtype A DS-Cav1 with a K209Q substitution (form used for SPR) (human respiratory syncytial virus subtype A (strain A2)) (UniProt P03420); experiment: SPR
[3] = target: prefusion-stabilized RSV F (DS-Cav1), subtype B (strain B9320), with C-terminal His tag and Strep-ta (human respiratory syncytial virus subtype B (strain B9320)); experiment: SPR
[4] = target: prefusion-stabilized RSV F variant DS-Cav1 from strain A2, tags removed, Endo H-treated (form used for crystallization) (human respiratory syncytial virus subtype A (strain A2)) (UniProt P03420); experiment: crystal structure

Sequence of AM22 antigen-binding fragment (Fab) (VH): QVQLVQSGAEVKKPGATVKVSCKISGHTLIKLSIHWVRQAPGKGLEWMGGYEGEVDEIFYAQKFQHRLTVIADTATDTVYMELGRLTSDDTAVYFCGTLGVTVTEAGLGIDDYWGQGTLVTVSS
Sequence of AM22 antigen-binding fragment (Fab) (VL): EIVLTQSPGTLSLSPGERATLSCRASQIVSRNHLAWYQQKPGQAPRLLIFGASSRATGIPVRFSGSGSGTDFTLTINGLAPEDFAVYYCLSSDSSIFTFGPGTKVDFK

Substance | Kd [1] | Kd [2] | Kd [3] | stoichiometry N (Fabs per F trimer) [4]
AM22 antigen-binding fragment (Fab) | 0.12 nM | 6.7 nM | 6.1 nM | 3
D25 Fab | < 0.064 nM | – | 0.33 nM | –
